Assay results: paper PMC2532732

Experiments:
Assay in all cases: EMSA
p73 DBD = target: T1, p73 DBD (UniProt O15350 104-333)
T1 sequence: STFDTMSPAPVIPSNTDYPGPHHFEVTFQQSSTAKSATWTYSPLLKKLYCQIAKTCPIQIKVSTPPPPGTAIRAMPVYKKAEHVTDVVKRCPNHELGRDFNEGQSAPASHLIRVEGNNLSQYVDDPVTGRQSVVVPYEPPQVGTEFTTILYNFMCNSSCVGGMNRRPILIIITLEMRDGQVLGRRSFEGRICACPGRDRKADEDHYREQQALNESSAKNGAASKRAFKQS

p63 DBD = target: T2, p63 DBD (UniProt Q9H3D4 154-365)
T2 sequence: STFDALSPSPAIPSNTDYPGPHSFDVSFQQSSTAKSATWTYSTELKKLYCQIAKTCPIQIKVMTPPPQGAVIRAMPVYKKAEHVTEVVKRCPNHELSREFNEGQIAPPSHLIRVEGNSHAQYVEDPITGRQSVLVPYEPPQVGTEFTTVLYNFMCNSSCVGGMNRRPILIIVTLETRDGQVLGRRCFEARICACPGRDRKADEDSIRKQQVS

p53 DBD = p53 DBD (UniProt P04637 94-312)

Measured: binding result

Chain of p53 DBD (P04637 94-312): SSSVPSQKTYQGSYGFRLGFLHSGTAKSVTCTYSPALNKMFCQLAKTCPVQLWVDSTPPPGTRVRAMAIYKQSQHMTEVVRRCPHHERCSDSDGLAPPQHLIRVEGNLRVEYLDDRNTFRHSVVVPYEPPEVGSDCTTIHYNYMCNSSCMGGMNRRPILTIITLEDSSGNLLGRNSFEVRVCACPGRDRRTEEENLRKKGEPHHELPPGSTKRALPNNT

B1: Bax promoter 30-mer (dsDNA)
DNA 1: GGGCTCACAAGTTAGAGACAAGCCTGGGCG
DNA 2: CGCCCAGGCTTGTCTCTAACTTGTGAGCCC
binds: all assays above

B2: PUMA promoter 30-mer (dsDNA)
DNA 1: CGCGCCTGCAAGTCCTGACTTGTCCGCGGC
DNA 2: GCCGCGGACAAGTCAGGACTTGCAGGCGCG
binds: all assays above
